The target of one assay is HLA-B*14:02. The experiment in a line: IEDB peptide-MHC binding, purified MHC/direct/fluorescence; filed as Kd, often an IC50 or EC50 that approximates it; ≥ and ≤ were set here for values at or beyond the usual limits of such assays. The settings on record: source organism: Homo sapiens.
The target in another assay is HLA-A*68:23. The experiment in a line: IEDB peptide-MHC binding, purified MHC/competitive/fluorescence; filed as Kd, often an IC50 or EC50 that approximates it; ≥ and ≤ were set here for values at or beyond the usual limits of such assays. The settings on record: source organism: Entamoeba histolytica HM-1:IMSS.
In a further assay the target is HLA-B*51:01. The assay is described as above. The conditions noted are these: source organism: Entamoeba histolytica HM-1:IMSS.
For the next assay, the target named is HLA-B*15:42. Described as above. The conditions noted are these: source organism: Entamoeba histolytica HM-1:IMSS.
Another assay has as its target HLA-A*32:15. The assay is described as above. The conditions noted are these: source organism: Entamoeba histolytica HM-1:IMSS.
The target of another assay is HLA-B*40:13. The assay is described as above. The conditions noted are these: source organism: Entamoeba histolytica HM-1:IMSS.
A further assay addresses HLA-B*45:06. The assay is described as above. The settings on record: source organism: Entamoeba histolytica HM-1:IMSS.
The next assay concerns the target HLA-B*83:01. The assay is described as above. The conditions noted are these: source organism: Entamoeba histolytica HM-1:IMSS.
For a further assay, the target named is HLA-C*05:01. The experiment in a line: IEDB peptide-MHC binding, purified MHC/direct/fluorescence; filed as Kd, often an IC50 or EC50 that approximates it; ≥ and ≤ were set here for values at or beyond the usual limits of such assays. The settings on record: source organism: Entamoeba histolytica HM-1:IMSS.
The target in a further assay is HLA-B*08:02. Kind of assay: IEDB peptide-MHC binding, purified MHC/competitive/fluorescence; filed as Kd, often an IC50 or EC50 that approximates it; ≥ and ≤ were set here for values at or beyond the usual limits of such assays. The conditions noted are these: source organism: Escherichia coli str. K-12 substr. DH10B.
In another assay the target is HLA-A*31:01. Described as above. The conditions noted are these: source organism: Escherichia coli str. K-12 substr. DH10B.
Another assay addresses HLA-A*03:01. The assay is described as above. The conditions noted are these: source organism: Escherichia coli str. K-12 substr. DH10B.
For the next assay, the target named is HLA-A*01:01. The assay is described as above. The settings on record: source organism: Escherichia coli str. K-12 substr. DH10B.
For the next assay, the target named is HLA-A*02:03. The description is as above. The settings on record: source organism: Escherichia coli str. K-12 substr. DH10B.
In another assay the target is HLA-A*02:12. The assay is described as above.
For the next assay, the target named is HLA-A*11:01. Described as above. The conditions noted are these: source organism: Escherichia coli str. K-12 substr. DH10B.
In the next assay the target is HLA-A*30:01. Described as above. The conditions noted are these: source organism: Escherichia coli str. K-12 substr. DH10B.
The target in the next assay is HLA-B*46:01. The assay is described as above.
For another assay, the target named is HLA-B*08:03. The description is as above. The settings on record: source organism: Escherichia coli str. K-12 substr. DH10B.
The target of assay [1] is HLA-A*02:01. Described as above. The conditions noted are these: source organism: Escherichia coli str. K-12 substr. DH10B.
The target in another assay is HLA-B*40:01. The assay is described as above. The settings on record: source organism: Escherichia coli str. K-12 substr. DH10B.
A further assay has as its target HLA-B*48:01. The assay is described as above. The settings on record: source organism: Escherichia coli str. K-12 substr. DH10B.
For a further assay, the target named is HLA-B*15:01. Described as above. The conditions noted are these: source organism: Escherichia coli str. K-12 substr. DH10B.
The next assay concerns the target HLA-B*18:01. The assay is described as above. The settings on record: source organism: Escherichia coli str. K-12 substr. DH10B.
A further assay addresses HLA-B*27:05. The description is as above. The conditions noted are these: source organism: Escherichia coli str. K-12 substr. DH10B.
In a further assay the target is HLA-B*07:02. Described as above. The settings on record: source organism: Escherichia coli str. K-12 substr. DH10B.
The target in the next assay is HLA-B*35:01. Described as above. The conditions noted are these: source organism: Escherichia coli str. K-12 substr. DH10B.
In assay [2] the target is HLA-B*58:01. The description is as above. The conditions noted are these: source organism: Escherichia coli str. K-12 substr. DH10B.
Another assay has as its target HLA-A*26:02. The assay is described as above. The conditions noted are these: source organism: Escherichia coli str. K-12 substr. DH10B.
In assay [3] the target is HLA-A*29:02. The description is as above. The settings on record: source organism: Burkholderia mallei NCTC 10229.
The target of the next assay is HLA-B*39:01. The assay is described as above. The settings on record: source organism: Burkholderia mallei NCTC 10229.
For another assay, the target named is HLA-A*80:01. Described as above. The conditions noted are these: source organism: Burkholderia mallei NCTC 10229.
For a further assay, the target named is HLA-A*02:19. The assay is described as above. The settings on record: source organism: Burkholderia mallei NCTC 10229.
In another assay the target is HLA-A*26:01. The description is as above. The conditions noted are these: source organism: Burkholderia mallei NCTC 10229.
A further assay deals with HLA-C*15:02. The experiment in a line: IEDB peptide-MHC binding, purified MHC/direct/fluorescence; filed as Kd, often an IC50 or EC50 that approximates it; ≥ and ≤ were set here for values at or beyond the usual limits of such assays. The conditions noted are these: source organism: Burkholderia mallei NCTC 10229.
In the next assay the target is HLA-B*15:02. The experiment in a line: IEDB peptide-MHC binding, purified MHC/competitive/fluorescence; filed as Kd, often an IC50 or EC50 that approximates it; ≥ and ≤ were set here for values at or beyond the usual limits of such assays. The conditions noted are these: source organism: Homo sapiens.
In assay [4] the target is HLA-A*29:02. The experiment in a line: IEDB peptide-MHC binding, purified MHC/competitive/radioactivity; filed as Kd, often an IC50 or EC50 that approximates it; ≥ and ≤ were set here for values at or beyond the usual limits of such assays. The conditions noted are these: source organism: Homo sapiens.
In a further assay the target is HLA-B*57:01. Described as above. The conditions noted are these: source organism: Homo sapiens.
The target in assay [5] is HLA-A*02:01. The description is as above. The settings on record: source organism: Homo sapiens.
The target of assay [6] is HLA-B*58:01. The description is as above. The settings on record: source organism: Homo sapiens.
The target of a further assay is HLA-A*02:07. Described as above. The settings on record: source organism: Homo sapiens.
Setting [7] is: source organism: Escherichia coli str. K-12 substr. DH10B.

For the sequence DELNHASI, the Kd – broadly, the free concentration of one partner at which half of the binding sites on the other are occupied at equilibrium, for simple one-to-one binding – with HLA-B*14:02 turned out to be 163 nM.
With MPYHGYHII, the Kd with HLA-A*68:23 is 95 nM; with HLA-B*51:01, 91 nM; with HLA-B*15:42, at least 5000 nM; with HLA-A*32:15, 134 nM; with HLA-B*40:13, 44.1 nM; in the assay with HLA-B*45:06, at least 5000 nM. Also, the Kd is 36.9 nM with HLA-B*83:01 and at least 20000 nM in the assay with HLA-C*05:01.
As to QVIFKCVPK, the Kd is at least 20000 nM with HLA-B*08:02; 4770 nM with HLA-A*31:01; 1070 nM in the assay with HLA-A*03:01; 1040 nM with HLA-A*01:01; at least 20000 nM in the assay with HLA-A*02:03; 68.6 nM with HLA-A*02:12 (setting [7]). The Kd in the assay with HLA-A*11:01 is 190 nM; with HLA-A*30:01, 75.3 nM; with HLA-B*46:01 (setting [7]) it was at least 20000 nM; with HLA-B*08:03, at least 20000 nM; in the assay with HLA-A*02:01 [1] it was 367 nM; with HLA-B*40:01 it was at least 20000 nM. The Kd in the assay with HLA-B*48:01, in the assay with HLA-B*15:01, with HLA-B*18:01, with HLA-B*27:05, with HLA-B*07:02 and in the assay with HLA-B*35:01 was at least 20000 nM in each case. Further, the Kd is 2260 nM in the assay with HLA-B*58:01 [2] and at least 20000 nM in the assay with HLA-A*26:02.
With RTFGQPLFF, the Kd with HLA-A*29:02 [3] is 0.2 nM; with HLA-B*39:01, at least 20000 nM; in the assay with HLA-A*80:01, 413 nM; in the assay with HLA-A*02:19 it was at least 20000 nM; with HLA-A*02:12 (source organism: Burkholderia mallei NCTC 10229) it was at least 20000 nM; with HLA-A*26:01 it was at least 20000 nM. Further, the Kd with HLA-C*15:02 was 5 nM.
Take SIRDGVRAY: the Kd with HLA-B*46:01 (source organism: Homo sapiens) is 51.5 nM; with HLA-B*15:02, 13.8 nM; with HLA-A*29:02 [4] it was 2870 nM; with HLA-B*57:01, at least 45600 nM; with HLA-A*02:01 [5], at least 78100 nM; in the assay with HLA-B*58:01 [6], at least 48300 nM. Moreover, the Kd with HLA-A*02:07 is at least 60000 nM.
